B1: scFv; the commonest letter at each place (parent)
chain 1: EVKLDETGGGLVQPGRPMKLSCVASGFTFSDYWMNWVRQSPEKGLEWVAQIRNKPYNYETYYSDSVKGRFTISRDDSKSSVYLQMNNLRVEDMGIYYCTGSYYGMDYWGQGTSVTVS
chain 2: DVVMTQTPLSLPVSLGDQASISCRSSQSLVHSNGNTYLRWYLQKPGQSPKVLIYKVSNRFSGVPDRFSGSGSGTDFTLKISRVEAEDLGVYFCSQSTHVPWTFGGGTKLEIK

What was measured:
fluorescein = variants of: B1; experiment: Kd (Tite-Seq); conditions: with fluorescein; format: scFv 4-4-20, heavy + light
[1] = variants of: B1; experiment: yeast surface expression (ratio to wild type); higher = more expressed; conditions: format: scFv 4-4-20, heavy + light

Row | Variant | Kd (fluorescein) [µM] | yeast surface expression [1]
1 | chain 1 F29I W33A W36Y | ≥ 10 | 0.454
2 | chain 1 F29I W33D M34W | ≥ 10 | 0.719
3 | chain 1 F29I W33H | ≥ 10 | 0.763
4 | chain 1 F29I W33H M34P | ≥ 10 | 0.518
5 | chain 1 F29I W33M V37P | ≥ 10 | 0.444
6 | chain 1 F29I W36L | ≥ 10 | 0.729
7 | chain 1 F29I Y32E | ≥ 10 | 0.916
8 | chain 1 F29I Y32G | ≥ 10 | 1.08
9 | chain 1 F29I Y32K | 0.00226 | 1.07
10 | chain 1 F29K | ≥ 10 | 0.849
11 | chain 1 F29K D31K W33G | ≥ 10 | 0.92
12 | chain 1 F29K M34F | 0.0233 | 0.631
13 | chain 1 F29K M34Y | 0.00708 | 0.801
14 | chain 1 F29K S30A W36A | 0.0767 | 0.756
15 | chain 1 F29K W33R | 0.0692 | 0.639
16 | chain 1 F29K Y32G | ≥ 10 | 0.778
17 | chain 1 F29K Y32N | ≥ 10 | 0.609
18 | chain 1 F29L | 0.0402 | 0.984
19 | chain 1 F29L D31L | ≥ 10 | 0.633
20 | chain 1 F29L D31S | 0.972 | 0.743
21 | chain 1 F29L M34C | ≥ 10 | 0.745
22 | chain 1 F29L M34D | ≥ 10 | 0.656
23 | chain 1 F29L M34K W36P | 0.228 | 0.61
24 | chain 1 F29L M34W | ≥ 10 | 0.795

Row | Variant | Kd (fluorescein) [µM] | yeast surface expression [1]
25 | chain 1 F29L N35D | ≥ 10 | 0.64
26 | chain 1 F29L N35T | ≥ 10 | 0.76
27 | chain 1 F29L S30C N35A | ≥ 10 | 0.89
28 | chain 1 F29L S30L | ≥ 10 | 0.651
29 | chain 1 F29L S30T V37W | ≥ 10 | 0.536
30 | chain 1 F29L V37P | ≥ 10 | 0.419
31 | chain 1 F29L W33A | ≥ 10 | 0.763
32 | chain 1 F29L W33D W36S | ≥ 10 | 0.585
33 | chain 1 F29L W33Y | ≥ 10 | 0.732
34 | chain 1 F29L Y32F | ≥ 10 | 0.72
35 | chain 1 F29M | 0.00251 | 1.21
36 | chain 1 F29M D31I | ≥ 10 | 0.518
37 | chain 1 F29M D31N Y32A | 0.00606 | 1.2
38 | chain 1 F29M D31T | 0.00746 | 0.848
39 | chain 1 F29M D31Y W33Q | ≥ 10 | 0.811
40 | chain 1 F29M N35W | ≥ 10 | 0.403
41 | chain 1 F29M S30H Y32S | ≥ 10 | 0.982
42 | chain 1 F29M V37Y | 7.72 | 1.04
43 | chain 1 F29M W33C | ≥ 10 | 0.983
44 | chain 1 F29M W33M | ≥ 10 | 0.873
45 | chain 1 F29M W33P | ≥ 10 | 0.639
46 | chain 1 F29M W33V | ≥ 10 | 0.982
47 | chain 1 F29M W36V | ≥ 10 | 0.782
48 | chain 1 F29M Y32M | 0.0171 | 1.21

Row | Variant | Kd (fluorescein) [µM] | yeast surface expression [1]
49 | chain 1 F29N | 5.24 | 1.04
50 | chain 1 F29N D31C M34N | ≥ 10 | 0.701
51 | chain 1 F29N M34A | ≥ 10 | 0.918
52 | chain 1 F29N M34H | 1.63 | 0.665
53 | chain 1 F29N N35A | ≥ 10 | 0.862
54 | chain 1 F29N S30D | ≥ 10 | 0.949
55 | chain 1 F29N S30E | 0.0391 | 1.07
56 | chain 1 F29N S30H | ≥ 10 | 0.954
57 | chain 1 F29N S30K | 0.228 | 1.13
58 | chain 1 F29N S30P M34H | ≥ 10 | 0.781
59 | chain 1 F29N S30Q | 0.876 | 1.02
60 | chain 1 F29N S30Q N35K | ≥ 10 | 2.76
61 | chain 1 F29N S30T M34E | 0.311 | 1.73
62 | chain 1 F29N V37D | ≥ 10 | 0.229
63 | chain 1 F29N V37G | ≥ 10 | 0.135
64 | chain 1 F29N V37T | ≥ 10 | 0.668
65 | chain 1 F29N W33P | ≥ 10 | 0.333
66 | chain 1 F29N W36H | ≥ 10 | 0.279
67 | chain 1 F29N W36L | ≥ 10 | 0.472
68 | chain 1 F29P | 0.0318 | 1.05
69 | chain 1 F29P D31A M34A | ≥ 10 | 0.567
70 | chain 1 F29P D31I | ≥ 10 | 0.679
71 | chain 1 F29P D31R | 0.0259 | 0.86
72 | chain 1 F29P M34C | ≥ 10 | 0.755

Row | Variant | Kd (fluorescein) [µM] | yeast surface expression [1]
73 | chain 1 F29P S30Q | 0.0132 | 1.05
74 | chain 1 F29P S30Y | 0.0221 | 0.751
75 | chain 1 F29P V37H | ≥ 10 | 0.626
76 | chain 1 F29P V37K | 2.01 | 0.288
77 | chain 1 F29P V37W | ≥ 10 | 0.685
78 | chain 1 F29P W33E | ≥ 10 | 0.722
79 | chain 1 F29P W33G | ≥ 10 | 0.951
80 | chain 1 F29P W36A | ≥ 10 | 0.456
81 | chain 1 F29P W36E | ≥ 10 | 0.482
82 | chain 1 F29P Y32A | 2.47 | 1.12
83 | chain 1 F29P Y32I M34L | ≥ 10 | 0.858
84 | chain 1 F29P Y32P | ≥ 10 | 0.856
85 | chain 1 F29Q | 0.0119 | 0.989
86 | chain 1 F29Q M34W | ≥ 10 | 1.56
87 | chain 1 F29Q S30C N35I | ≥ 10 | 0.232
88 | chain 1 F29Q S30D Y32A | ≥ 10 | 0.934
89 | chain 1 F29Q S30G | 0.0391 | 0.863
90 | chain 1 F29Q S30Q | 0.0146 | 0.966
91 | chain 1 F29Q V37A | 5.66 | 0.847
92 | chain 1 F29Q V37M | 0.00239 | 1.09
93 | chain 1 F29Q W33I | ≥ 10 | 0.707
94 | chain 1 F29Q W36H | ≥ 10 | 0.405
95 | chain 1 F29Q W36T | ≥ 10 | 0.359
96 | chain 1 F29Q Y32C | 9.5 | 1

Row | Variant | Kd (fluorescein) [µM] | yeast surface expression [1]
97 | chain 1 F29Q Y32E W33S | ≥ 10 | 0.761
98 | chain 1 F29Q Y32L | ≥ 10 | 0.881
99 | chain 1 F29Q Y32V | ≥ 10 | 0.848
100 | chain 1 F29R | ≥ 10 | 0.758
101 | chain 1 F29R D31G | ≥ 10 | 0.755
102 | chain 1 F29R D31K | ≥ 10 | 0.343
103 | chain 1 F29R S30L | ≥ 10 | 0.654
104 | chain 1 F29R V37E | 1.08 | 0.545
105 | chain 1 F29R V37N | ≥ 10 | 0.445
106 | chain 1 F29R V37P | ≥ 10 | 0.289
107 | chain 1 F29R V37S | ≥ 10 | 0.385
108 | chain 1 F29R Y32P N35E | ≥ 10 | 0.819
109 | chain 1 F29R Y32Q | ≥ 10 | 0.633
110 | chain 1 F29S | 0.0265 | 0.933
111 | chain 1 F29S D31W | ≥ 10 | 0.756
112 | chain 1 F29S D31Y | 0.00343 | 0.752
113 | chain 1 F29S M34S | ≥ 10 | 0.543
114 | chain 1 F29S N35H | ≥ 10 | 0.836
115 | chain 1 F29S N35R | 0.0434 | 0.922
116 | chain 1 F29S N35Y | 0.327 | 1.05

Reference: the FLAb antibody collection (doi:10.7554/elife.23156)
